# Results: patent publication US20250122306A1 (SUTRO BIOPHARMA, published 2025)
# Biological target: tissue factor reagent of the Tissue Factor Activity Assay Kit (Abcam #ab108906) (UniProt P13726 33-295, limits assumed)
# Experiment: cell-based or functional assay
# tissue factor reagent of the Tissue Factor Activity Assay Kit (Abcam #ab108906), sequence (P13726 33-295 limits assumed): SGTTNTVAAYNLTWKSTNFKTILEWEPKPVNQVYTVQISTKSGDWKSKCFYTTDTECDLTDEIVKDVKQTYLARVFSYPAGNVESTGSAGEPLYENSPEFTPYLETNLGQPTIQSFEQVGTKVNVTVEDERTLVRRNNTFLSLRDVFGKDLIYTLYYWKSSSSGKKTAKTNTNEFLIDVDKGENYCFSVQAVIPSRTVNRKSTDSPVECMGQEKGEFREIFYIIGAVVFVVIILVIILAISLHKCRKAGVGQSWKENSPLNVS
row,Binder,"FX conversion (% inhibition), 1000 nM antibody [%]"
1,"SRP2900-B11 (antibody, IgG1, V domains shown) VH: EVQLVESGGGLVQPGGSLRLSCAASGFTIPAYWIHWVRQAPGKGLEWVGYIDPSNGYTYYADSVKGRFTISADASKNTAYLQMNSLRAEDTAAYYCARADYHGVDEYWDYWGQGTLVTVSS VL: not shown",22.4
2,"SRP2900-C07 (antibody, IgG1, V domains shown) VH: EVQLVESGGGLVQPGGSLRLSCAASGFTISGYWIHWVRQAPGKGLEWVGYIDPYNGATYYADSVKGRFTISADTSKNTAYLQMNSLRAEDTAVYYCARADYYYVDEYFDYWGQGTLVTVSS VL: not shown",41.6
3,"SRP2900-A01 (antibody, IgG1, V domains shown) VH: EVQLVESGGGLVQPGGSLRLSCAASGFTISSYWIHWVRQAPGKGLKWVGYIDPYNGATYYADSVKGRFTISADTSKNTAYLQMNSLRAEDTAVYYCARADYYYVDEYFDYWGQGTLVTVSS VL: not shown",37
4,"SRP2900-C02 (antibody, IgG1, V domains shown) VH: EVQLVESGGGLVQPGGSLRLSCAASGFTISSYWIHWVRQAPGKGLEWVGYIDPYNGATYYADSVKGRFTISADTSKNTAYLQMNSLRAEDTAVYYCARADYYYVDEYWDYWGQGTLVTVSS VL: not shown",29.6
5,"SRP2900-C05 (antibody, IgG1, V domains shown) VH: EVQLVESGGGLVQPGGSLRLSCAASGFTISGYWIHWVRQAPGKGLEWVGYIDPYNGATYYADSVKGRFTISADTPKNTAYLQMNSLRAEDTAVYYCARADYHGVDEYWDYWGQGTLVTVSS VL: not shown",35.7
6,"SRP2900-A03 (antibody, IgG1, V domains shown) VH: EVQLVESGGGLVQPGGSLRLSCAASGFTIPSYWIHWVRQAPGKGLEWVGYIDPANGATYYADSVKGRFTISADTSKNTAYLQMNSLRAEDTAVYYCARADYFYVDEYLDYWGQGTLVTVSS VL: not shown",26.3
7,"SRP2900-C04 (antibody, IgG1, V domains shown) VH: EVQLVESGGGLVQPGGSLRLSCAASGFTIVSYWIHWVRQAPGKGLEWVGYIDPYNGATYYADSVKGRFTISADTSKNTAYLQMNSLRAEDTAVYYCARADYYYVDEYWDYWGQGTLVTVSS VL: not shown",36.7
8,"SRP2900-C10 (antibody, IgG1, V domains shown) VH: EVQLVESGGGLVQPGGSLRLSCAASGFTISDYWIHWVRQAPGKGLEWVGYIDPYNGYTYYADSVNGRFTISADTSKNTAYLQMNSLRAEDTAVYYCARDYGSYLVSLDYWGQGTLVTVSS VL: not shown",42.1
9,"SRP2900-D08 (antibody, IgG1, V domains shown) VH: EVQLVESGGGLVQPGGSLRLSCAASGFTISDYWIHWVRQAPGKGLEWVGYIDPYNGYTYYADSVKGRFTISADTSKNTAYLQMNSLRAEDTAVYYCARDYGSLEVSLDYWGQGTLVTVSS VL: not shown",44.9
10,"SRP2900-D07 (antibody, IgG1, V domains shown) VH: EVQLVESGGGLVQPGGSLRLSCAASGFTISDYWIHWVRQAPGKGLEWVGYIDPSNGYTYYADSVKGRFTISADTSRNTAYLQMNSLRAEDTAVYYCARDYGSLEVSLDYWGQGTLVTVSS VL: not shown",47.4
11,"SRP2900-D09 (antibody, IgG1, V domains shown) VH: EVQLVESGGGLVQPGGSLRLSCAASGFTISGYWIHWVRQAPGKGLEWVGYIDPANGFTYYADSVKGRFTISADTSKNTAYLQMNSLRAEDTAVYYCARDYGSIQVFLDYWGQGTLVTVSS VL: not shown",30
12,"SRP2900-D03 (antibody, IgG1, V domains shown) VH: EVQLVESGGGLVQPGGSLRLSCAASGFTISQYWIHWVRQAPGKGLEWVGYIDPYNGYTYYADSVKGRFTISADTSKNTAYLQMNSLRAEDTAVYYCARDYGSLQVQLDYWGQGTLVTVSS VL: not shown",37.4
13,"SRP2900-D06 (antibody, IgG1, V domains shown) VH: EVQLVESGGGLVQPGGSLRLSCAASGFTISDYWIHWVRQAPGKGLEWVGYIDPQNGWTYYADSVKGRFTISADTSKNTAYLQMNSLRAEDTAVYYCARDYGSLTINLDYWGQGTLVTVSS VL: not shown",46.2
14,"SRP2900-D05 (antibody, IgG1, V domains shown) VH: EVQLVESGGGLVQPGGSLRLSCAASGFAIANYWIHWVRQAPGKGLEWVGYIDPYNGYTYYADSVKGRFTISADTSKNTAYLQMNSLRAEDTAVYYCARDYGSLEVSLDYWGQGTLVTVSS VL: not shown",33.6
15,"SRP2900-D02 (antibody, IgG1, V domains shown) VH: EVQLVESGGGLVQPGGSLRLSCAASGFTISDYWIHWVRQAPGKGLEWVGYIDPYNGYTYYADSVKGRFTISADTSKNTAYLQMNSLRAEDTAVYYCARDYGSLQVFIDHWGQGTLVTVSS VL: not shown",32.1
16,"SRP2900-D04 (antibody, IgG1, V domains shown) VH: EVQLVESGGGLVQPGGSLRLSCAASGFTISDYWIHWVRQAPGKGLEWVGFIDPYNGYTYHADSVEGRFTISADTSKNTAYLQMNSLRAEDTAVYYCARDYGSLQVQLDYWGQGTLVTVSS VL: not shown",46
17,"SRP2900-D01 (antibody, IgG1, V domains shown) VH: EVQLVESGGGLVQPGGSLRLSCAASGFTIHEYWIHWVRQAPGKGLEWVGYIDPANGFTYYADSVKGRFTISADTSKNTAYLQMNSLRAEDTAVYYCARDYGSLQVFLDYWGQGTLVTVSS VL: not shown",32.7

# Next, values leading:
row,"FX conversion (% inhibition), 1000 nM antibody [%]",Binder
1,39.9,"SRP2900-E11 (antibody, IgG1, V domains shown) VH: EVQLVESGGGLVQPGGSLRLSCAASGFTISYYIIHWVRQAPGKGLEWVGYIDPSNGYTYYADSVKGRFTISADTSKNTAYLQMNSLRAEDTAVYYCARDVQSVSGEFDYWGQGTLVTVSS VL: not shown"
2,25.1,"SRP2900-F05 (antibody, IgG1, V domains shown) VH: EVQLVESGGGLVQPGGSLRLSCAASGFTINDYVIHWVRQAPGKGLEWVGYIDPSNGYTYYADSVKGRFTISADTSKNTAYLQMNSLRAEDTAVYYCARDDQSLSSPFDYWGQGTLVTVSS VL: not shown"
3,30.3,"SRP2900-F07 (antibody, IgG1, V domains shown) VH: EVQLVESGGGLVQPGGSLRLSCAASGFTISDYTIHWVRQAPGKGLEWVGYIDPSNGYTYHADSVKGRFTISADTSKNTAYLQMNSLRAEDTAVYYCARDPQSVSSPFDYWGQGTLVTVSS VL: not shown"
4,25.1,"SRP2900-G01 (antibody, IgG1, V domains shown) VH: EVQLVESGGGLVQPGGSLRLSCAASGFTIFDYTIHWVRQAPGKGLEWVGYIDPSNGYTFYADSVKGRFTISADTSKNTAYLQVNSLRAEDTAVYYCARDIQSVSGEFDYWGQGTLVTVSS VL: not shown"
5,25.9,"SRP2900-E04 (antibody, IgG1, V domains shown) VH: EVQLVESGGGLVQPGGSLRLSCAASGFTIPDYWIHWVRQAPGKGLEWVGYIDPYSGSTFYADSVKGRFTISADTSKNTAYLQMNSLRAEDTAVYYCARADYYYVDEYLDYWGQGTLVTVSS VL: not shown"
6,50.7,"SRP2900-E10 (antibody, IgG1, V domains shown) VH: EVQLVESGGGLVQPGGSLRLSCAASGFTISDYWIHWVRQAPGKGLEWVGYIDPANGYTYYADSVKGRFTISADTSKNTAYLQMNSLRAEDTAVYYCARDYGSLHVQLDYWGQGTLVTVSS VL: not shown"
7,45.8,"SRP2900-E08 (antibody, IgG1, V domains shown) VH: EVQLVESGGGLVQPGGSLRLSCAASGFTITDYWIHWVRQAPGKGLEWVGYIDPYNGYTYYADSVKGRFTISADTSKNTAYLQMNSLRAEDTAVYYCARDYGSLQVFIDYWGQGTLVTVSS VL: not shown"
8,51.4,"SRP2900-D11 (antibody, IgG1, V domains shown) VH: EVQLVESGGGLVQPGGSLRLSCAASGFTISDYWIHWVRQAPGKGLEWVGYIDPYNGYTYYADSVKGRFTISADTSKNTAYLQMNPLRAEDTAVYYCARDYGSLQVQLDYWGQGTLVTVSS VL: not shown"
9,32.5,"SRP2900-F10 (antibody, IgG1, V domains shown) VH: EVQLVESGGGLVQPGGSLRLSCAASGFTISDYVIHWVRQAPGKGLEWVGYIDPSNGYTYYADSVKGRFTISADTSKNTAYLQMNSLRAEDTAVYYCARDPQSLFYPFDYWGQGTLVTVSS VL: not shown"
10,37,"SRP2900-D10 (antibody, IgG1, V domains shown) VH: EVQLVESGGGLVQPGGSLRLSCAASGFTISDYWIHWVRQAPGKGLEWVGFIDPKNGYTYYADSVKGRFTISAGTSKNTAYLQMNSLRAEDTAVYYCARDYGSLQVFIDYWGQGTLVTVSS VL: not shown"
11,23.5,"SRP2900-E05 (antibody, IgG1, V domains shown) VH: EVQLVESGGGLVQPGGSLRLSCAASGFTISGYWIHWVRQAPGKGLEWVGYIDPANGFTYYADSVKGRFTISADTSKNTAYLQMNSLRAEDTAVYYCARDYGSVRVFLDYWGQGTLVTVSS VL: not shown"
12,48.7,"SRP2900-E03 (antibody, IgG1, V domains shown) VH: EVQLVESGGGLVQPGGSLRLSCAASGFTISDYWIHWVRQAPGKGLEWVGYIDPQNGWTYYADSVKGRFTISADTSKNTAYLQMNSLRAEDTAVYYCARDYGSLEVSLDYWGQGTLVTVSS VL: not shown"
13,47.3,"SRP2900-F04 (antibody, IgG1, V domains shown) VH: EVQLVESGGGLVQPGGSLRLSCAASGFTISDYWIHWVRQAPGKGLEWVGYIDPYNGFTYYADSVKGRFTISADTSKNTAYLQMNSLRAEDTAVYYCARDYGSLQVFIDYWGQGTLVTVSS VL: not shown"
14,40.4,"SRP2900-E01 (antibody, IgG1, V domains shown) VH: EVQLVESGGGLVQPGGSLRLSCAASGFTISDYWIHWVRQAPGKGLEWVGYIDPSNGYTYYADSVKGRFTISADTSKNTAYLQMNSLRAEDTAVYYCARDYGSLQVFIDYWGQGTLVTVSS VL: not shown"
15,32.2,"SRP2900-E09 (antibody, IgG1, V domains shown) VH: EVQLVESGGGLVQPGGSLRLSCAASGFTISQYWIHWVRQAPGKGLEWVGYIDPYNGYTYYADSVKGRFTISADTSKNTAHLQMNSLRAEDTAVYYCARDYGSFRVQLDYWGQGTLVTVSS VL: not shown"
